Data reported in patent US20180194862A1 (AbbVie / Abbott, published 2018).
Like-named read-outs stand apart in the source and are kept apart here.

What was measured:
[1] = biological target: T1, human CD40 on cells (HEK293 stable transfectants, HEK-Blue CD40 cells, human B cells, monocytic cells, … (human, UniProt P25942 21-277)); assay: cell-based or functional assay
[2] = biological target: T1, human CD40 on cells (HEK293 stable …); assay: CD40 occupancy on B cells, -MSLN (n = 3)
cynomolgus mesothelin [3] = biological target: T2, cynomolgus mesothelin (cynomolgus); assay: SPR
T2 construct: also called cynoMSLN; Cyno MSLN

[4] = biological target: T3, soluble form of the extracellular domain of cynomolgus (cyno) CD40 (Creative BioMart) (cynomolgus, UniProt G7PG38 21-193); assay: SPR
T3 construct: extracellular domain; also called Cynomolgus CD40

human mesothelin [5] = biological target: T4, human mesothelin (human, UniProt Q13421 296-580, limits assumed); assay: SPR
T4 construct: also called Human MSLN
T4 sequence (Q13421 other isoform, or with tags, fused parts or gaps limits assumed): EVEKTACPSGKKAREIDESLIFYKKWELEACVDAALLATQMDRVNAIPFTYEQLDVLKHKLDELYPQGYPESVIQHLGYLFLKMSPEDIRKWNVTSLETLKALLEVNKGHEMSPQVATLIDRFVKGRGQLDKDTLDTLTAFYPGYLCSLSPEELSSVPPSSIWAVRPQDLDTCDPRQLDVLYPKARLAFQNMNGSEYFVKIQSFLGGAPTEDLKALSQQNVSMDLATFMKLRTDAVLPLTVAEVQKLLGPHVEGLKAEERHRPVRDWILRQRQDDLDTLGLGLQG

[6] = biological target: T5, soluble form of the extracellular domain of human CD40 (Creative BioMart) (human, UniProt P25942 21-193); assay: SPR
T5 construct: Bought
T5 sequence (P25942 21-193 limits assumed): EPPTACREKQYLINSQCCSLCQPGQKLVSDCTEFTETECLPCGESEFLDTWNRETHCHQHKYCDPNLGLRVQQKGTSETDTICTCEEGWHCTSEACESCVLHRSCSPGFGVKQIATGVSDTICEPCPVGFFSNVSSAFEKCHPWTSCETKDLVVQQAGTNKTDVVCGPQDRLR

human mesothelin [7] = biological target: T4, human mesothelin; assay: SPR; remark: listed apart in the source
[8] = biological target: T5, soluble form of the extracellular …; assay: SPR; remark: listed apart in the source
cynomolgus mesothelin [9] = biological target: T2, cynomolgus mesothelin; assay: SPR; remark: listed apart in the source
[10] = biological target: T3, soluble form of the extracellular …; assay: SPR; remark: listed apart in the source
[11] = biological target: T1, human CD40 on cells (HEK293 stable …); assay: cell-based or functional assay; remark: listed apart in the source
[12] = biological target: T6, MSLN (binding assays of Example 4, Table 4-2) (Homo sapiens (Human), UniProt Q13421 296-598); assay: antigen binding, format not stated
T6 construct: also called mesothelin
T6 sequence (Q13421 other isoform, or with tags, fused parts or gaps limits assumed, form in doubt): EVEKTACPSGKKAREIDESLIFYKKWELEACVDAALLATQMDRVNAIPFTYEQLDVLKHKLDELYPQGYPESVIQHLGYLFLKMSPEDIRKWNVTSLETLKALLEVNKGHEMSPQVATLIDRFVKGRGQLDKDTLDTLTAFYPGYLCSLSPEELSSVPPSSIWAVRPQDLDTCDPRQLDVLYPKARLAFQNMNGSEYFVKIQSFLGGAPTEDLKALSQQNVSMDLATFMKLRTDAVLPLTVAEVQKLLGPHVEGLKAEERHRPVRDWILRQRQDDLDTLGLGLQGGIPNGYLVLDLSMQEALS

[13] = biological target: CD40 (binding assays of Example 4, Table 4-2); assay: antigen binding, format not stated
Sequence of CD40 (binding assays of Example 4, Table 4-2) (P25942 21-277): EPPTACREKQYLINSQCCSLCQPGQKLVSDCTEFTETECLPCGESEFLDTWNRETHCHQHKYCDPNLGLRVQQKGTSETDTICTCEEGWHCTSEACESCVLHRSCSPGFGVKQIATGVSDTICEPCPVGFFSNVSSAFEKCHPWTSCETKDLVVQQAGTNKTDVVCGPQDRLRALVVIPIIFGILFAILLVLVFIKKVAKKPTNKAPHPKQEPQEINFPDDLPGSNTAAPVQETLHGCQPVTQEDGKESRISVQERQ

mouse CD40 = biological target: T7, mouse CD40 (mouse, UniProt P27512 20-193, limits assumed); assay: CD40 binding, format not stated
T7 construct: also called murine CD40
T7 sequence (looked up): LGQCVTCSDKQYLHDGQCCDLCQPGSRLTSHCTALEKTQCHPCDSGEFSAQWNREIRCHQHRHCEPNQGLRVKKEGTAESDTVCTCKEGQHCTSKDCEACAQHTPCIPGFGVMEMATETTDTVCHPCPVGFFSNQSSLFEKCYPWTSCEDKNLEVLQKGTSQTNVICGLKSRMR

T1 sequence (P25942 21-277 limits assumed): as the sequence (P25942 21-277) above

B1: huAb9 A2I (antibody, human IgG1, kappa)
heavy: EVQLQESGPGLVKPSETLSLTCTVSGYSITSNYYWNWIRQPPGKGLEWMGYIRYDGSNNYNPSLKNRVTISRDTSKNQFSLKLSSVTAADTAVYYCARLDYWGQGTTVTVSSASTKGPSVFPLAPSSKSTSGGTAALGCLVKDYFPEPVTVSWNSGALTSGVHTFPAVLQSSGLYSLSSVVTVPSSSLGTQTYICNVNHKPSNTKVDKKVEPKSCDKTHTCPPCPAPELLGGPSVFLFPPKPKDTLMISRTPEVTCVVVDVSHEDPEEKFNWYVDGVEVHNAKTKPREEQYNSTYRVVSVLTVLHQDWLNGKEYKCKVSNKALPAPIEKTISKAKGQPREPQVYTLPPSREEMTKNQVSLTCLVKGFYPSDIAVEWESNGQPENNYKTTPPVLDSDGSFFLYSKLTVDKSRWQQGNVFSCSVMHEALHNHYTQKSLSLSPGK
light: DIVMTQTPLSLSVTPGQPASISCRSSQSLENTNGNTFLNWYLQKPGQSPQLLIYRVSNRFSGVPDRFSGSGSGTDFTLKISRVEAEDVGVYYCLQVTHVPFTFGQGTKLEIKRTVAAPSVFIFPPSDEQLKSGTASVVCLLNNFYPREAKVQWKVDNALQSGNSQESVTEQDSKDSTYSLSSTLTLSKADYEKHKVYACEVTHQGLSSPVTKSFNRGEC
notes: human IgG1 V273E
B-cell CD23 EC50, +MSLN [1]: 2.5 nM
B-cell CD23 EC50, -MSLN [1]: 1.4 nM
B-cell CD86 EC50, +MSLN [1]: 0.7 nM
B-cell CD86 EC50, -MSLN [1]: 0.35 nM
B-cell proliferation EC50, +MSLN [1]: 12 nM
B-cell proliferation EC50, -MSLN [1]: 4.5 nM
moDC CD83 EC50, +MSLN [1]: 6.9 nM
moDC CD83 EC50, -MSLN [1]: 2 nM
moDC IL-12p70 EC50, +MSLN [1]: 3.4 nM
moDC IL-12p70 EC50, -MSLN [1]: 12.4 nM
EC50 [2]: 4.1 nM

B2: CF3 (bispecific antibody, human IgG1, lambda)
heavy: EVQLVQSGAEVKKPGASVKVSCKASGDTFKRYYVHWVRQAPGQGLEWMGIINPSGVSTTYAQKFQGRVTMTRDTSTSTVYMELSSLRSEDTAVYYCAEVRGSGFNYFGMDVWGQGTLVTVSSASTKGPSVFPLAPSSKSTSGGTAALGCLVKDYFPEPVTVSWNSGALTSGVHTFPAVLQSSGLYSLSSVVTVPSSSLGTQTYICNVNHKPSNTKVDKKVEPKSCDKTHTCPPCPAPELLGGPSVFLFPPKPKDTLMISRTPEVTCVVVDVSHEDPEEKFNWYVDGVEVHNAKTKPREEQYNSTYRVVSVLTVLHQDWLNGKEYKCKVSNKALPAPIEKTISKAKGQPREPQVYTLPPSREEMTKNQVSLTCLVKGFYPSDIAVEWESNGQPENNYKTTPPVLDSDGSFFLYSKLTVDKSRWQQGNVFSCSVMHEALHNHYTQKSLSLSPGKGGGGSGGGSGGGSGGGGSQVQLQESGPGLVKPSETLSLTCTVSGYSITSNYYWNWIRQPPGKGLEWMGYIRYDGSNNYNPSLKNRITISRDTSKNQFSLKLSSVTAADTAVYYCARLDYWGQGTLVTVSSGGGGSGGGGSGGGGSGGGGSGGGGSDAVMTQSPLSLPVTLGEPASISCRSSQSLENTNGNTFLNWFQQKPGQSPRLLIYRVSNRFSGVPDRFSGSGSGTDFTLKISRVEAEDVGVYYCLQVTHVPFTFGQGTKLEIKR
light: SYELTQPPSVSVSPGQTASITCSGDKLGDKYASWYQQKPGQSPVLVIYQDNRRPSGIPERFSGSNSGNTATLTISGTQAMDEADYYCQAWDSDTYVFGTGTKVTVLGQPKAAPSVTLFPPSSEELQANKATLVCLISDFYPGAVTVAWKADSSPVKAGVETTTPSKQSNNKYAASSYLSLTPEQWKSHRSYSCQVTHEGSTVEKTVAPTECS
notes: IgG-scFv
Kd (cynomolgus mesothelin [3]): ≤ 0.29 nM
Kd [4]: < 150 nM
Kd (human mesothelin [5]): < 400 nM
Kd [6]: < 400 nM
Kd (human mesothelin [7]): 0.59 nM
koff (human mesothelin [7]): 3.1e-05 s⁻¹
kon (human mesothelin [7]): 52000 M⁻¹ s⁻¹
Kd [8]: 14 nM
koff [8]: 0.0096 s⁻¹
kon [8]: 690000 M⁻¹ s⁻¹
Kd (cynomolgus mesothelin [9]): 0.29 nM
koff (cynomolgus mesothelin [9]): 8.2e-05 s⁻¹
kon (cynomolgus mesothelin [9]): 280000 M⁻¹ s⁻¹
Kd [10]: 8.3 nM
koff [10]: 0.011 s⁻¹
kon [10]: 1.3e+06 M⁻¹ s⁻¹
Max. IL-12p70, dendritic cells with cell-surface mesothelin [11]: 75 pg/mL

B3: B39 (bispecific antibody, IgG2)
chain: EVQLQESGPGLVKPSETLSLTCTVSGYSITSNYYWNWIRQPPGKGLEWMGYIRYDGSNNYNPSLKNRVTISRDTSKNQFSLKLSSVTAADTAVYYCARLDYWGQGTTVTVSSDLSGGGGSGGGGSGGGGSGGGGSTGDAVMTQTPLSLSVTPGQPASISCRSSQSLENTNGNTFLNWYLQKPGQSPQLLIYRVSNRFSGVPDRFSGSGSGTDFTLKISRVEAEDVGVYYCLQVTHVPFTFGQGTKLEIKRVERKSSVECPPCPAPPVAGPSVFLFPPKPKDTLMISRTPEVTCVVVDVSHEDPEVQFNWYVDGVEVHNAKTKPREEQFNSTFRVVSVLTVVHQDWLNGKEYKCKVSNKGLPAPIEKTISKTKGQPREPQVYTLPPSREEMTKNQVSLTCLVKGFYPSDIAVEWESNGQPENNYKTTPPMLDSDGSFFLYSKLTVDKSRWQQGNVFSCSVMHEALHNHYTQKSLSLSPGKVDGASSPVNVSSPSVQDIEVQLVQSGAEVKKPGASVKVSCKASGDTFKRYYVHWVRQAPGQGLEWMGIINPSGVSTTYAQKFQGRVTMTRDTSTSTVYMELSSLRSEDTAVYYCAEVRGSGFNYFGMDVWGQGTLVTVSSDLSGGGGSGGGGSGGGGSGGGGSTGSYELTQPPSVSVSPGQTASITCSGDKLGDKYASWYQQKPGQSPVLVIYQDNRRPSGIPERFSGSNSGNTATLTISGTQAMDEADYYCQAWDSDTYVFGTGTKVTVLGQ
notes: scFv-Fc-scFv, huIgG2
EC50 [12]: 7.4 µg/mL
EC50 [13]: 0.5 µg/mL

B4: anti-CD40 antibody (1C10 mIgG1) (antibody, V domains shown)
VH: EVQLVESGGGLVQPGRSLKLSCAASGFTFSNYDMAWVRQAPTKGLEWVASISPSGGRTYYRDSVKGRFTVSRDNAKSTLYLQMDSLRSEDTATYYCARHDGSYFDYWGQGVMVTVSS
VL: DTVLTQSPALAVSPGERVTISCRASESVSTLMHWYQQKPGQQPKLLIYLASHLESGVPARFSGSGSGTDFTLTIDPVEADDTATYYCQESWNDPWTFGGGTKLELK
notes: murine IgG1
EC50 (mouse CD40): 0.21 µg/mL
